The target in the assay is human transferrin receptor (human) (UniProt P02786). Put plainly: MST (Monolith NT.115), dye-labelled protein, receptor titrated.
Sequence of human transferrin receptor (human) (P02786 89-760 limits assumed): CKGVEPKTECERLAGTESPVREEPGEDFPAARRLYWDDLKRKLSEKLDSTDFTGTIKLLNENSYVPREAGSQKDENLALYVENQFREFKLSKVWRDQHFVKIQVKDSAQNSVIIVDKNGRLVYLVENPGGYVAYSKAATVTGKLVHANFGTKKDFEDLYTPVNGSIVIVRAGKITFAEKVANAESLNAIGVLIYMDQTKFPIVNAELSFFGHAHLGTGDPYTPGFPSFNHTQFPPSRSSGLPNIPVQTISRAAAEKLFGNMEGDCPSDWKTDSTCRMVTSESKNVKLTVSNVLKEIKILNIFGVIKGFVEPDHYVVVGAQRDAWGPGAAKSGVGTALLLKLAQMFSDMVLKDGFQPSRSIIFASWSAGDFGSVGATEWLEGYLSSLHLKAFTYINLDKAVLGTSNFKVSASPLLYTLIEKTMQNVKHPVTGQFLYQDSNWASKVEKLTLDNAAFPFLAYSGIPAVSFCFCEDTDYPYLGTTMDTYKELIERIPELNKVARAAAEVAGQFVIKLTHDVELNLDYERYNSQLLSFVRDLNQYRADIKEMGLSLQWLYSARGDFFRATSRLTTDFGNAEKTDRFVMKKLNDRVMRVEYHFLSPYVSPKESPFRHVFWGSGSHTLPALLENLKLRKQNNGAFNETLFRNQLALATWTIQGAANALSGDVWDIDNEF
In the case of “CD-gp100-huHF (from UniProt P02794 1-183)”, the Kd amounted to 4.89 nM.

Take BC-AH1-huHF (from UniProt P02794 1-183): the dissociation constant (Kd) turned out to be 107 nM.

DE-AH1-huHF (from UniProt P02794 1-183) showed a Kd of 6.11 nM.

AB-AH1-huHF (from UniProt P02794 1-183) yielded a Kd of 10.9 nM.

Turning to CD-AH1-huHF (from UniProt P02794 1-183), the Kd came to 3.45 nM.

Substance “AB-gp100-huHF (from UniProt P02794 1-183)” yielded a Kd of 29.7 nM.

By Kd is commonly meant the constant that tells how readily two partners part at equilibrium. Lower therefore signals higher affinity.

These data come from patent US20240150417A1.
